These results are taken from the nanobody polyreactivity screen of Harvey et al. (2022).

The data set is described as follows: yeast display, Sf9 membrane polyspecificity reagent, FACS + sequencing; frameworks hold sequencing errors. In short, it runs like this: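 Nanobodies from a synthetic yeast display library (Saccharomyces cerevisiae BJ5465), induced 36–48 hours with galactose, were stained 1 hour at 4 °C with 10% biotinylated, detergent-solubilized Sf9 membrane reagent, enriched on streptavidin microbeads, then FACS-sorted. Anti-HA (expression) and streptavidin (reagent binding) fluorescence set low and high (top ~1%) gates. Polyreactivity labels come from the gate of origin. Genes were colony-PCR amplified, MiSeq 2 × 250 sequenced and filtered by CDR length.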
In the case of “QVQLVESGGGLLQAGGSLRLSCAASGIFGRYAMGWYRQAPGKERELVAGISWSGVRTYYADSVKGRFTISRDNAKNTVYLQINSLKPEDTSVYYCPARPWNDGYYVGRFHMDYWGQGTQVTVSS”, the “polyreactivity (PSR sort gate)” value is “low polyreactivity”. Take “QVQLVESGGGLLQAGGSLRLSCAASGIIFRGYSMGWYRPAPGKERELVASITRRGGSTRYADSVKGRFTISRDNAKNTVYLQMNSLKPEDTPVYYCAAVGVGKTSTAYGYWGQGTQVNVSS”: the “polyreactivity (PSR sort gate)” value is on record as “high polyreactivity”. Next, “QVQLVESGGGLLQAGGSLRLSCAASGITFGRNTMGWYRQAPGKERELVAAINSGGSTTYADSVKGRFTISRDNAKNTVYLQMISLKPEDSAVYYCNKSSTGWTATYDYWGQGTQVTVSS”: “low polyreactivity”. Next, “QVQLVESGGGLLQAGGSLRLSCAASGITFRFYAMGGYRQAPGKEREFVAAISCRGGRTYYADSVKGRFTISRDNAKNTVYIQMNSLKPEDTAVYYCAADFYYRTVATVTSVARYDYWGQGTQVTVSS”: “high polyreactivity”; “QVQLVESGGGLLQAGGSLRLSCAASGNIFGWYAMGWYRQAPGKERELVAAISSGGRTNYADSVKGRFTISRDNAKNTVYLQMNSLKPEDTAVYYCATPLQQLYGYWGQGTQVSVSS”: “low polyreactivity”.

With “QVQLVESGGGLLQAGGSLRLSCAASGPTFAYYAMGWYRQATGKERELVAAIDSSGGSTYYADSVKGRFTISRDNSNNSVYLQMNSLKPEDTAVNYCAASYPYDRYDQGGFGYWGQGTQVTVSS”, the “polyreactivity (PSR sort gate)” value is reported as “low polyreactivity”.

On to “QVQLVESGGGLLQAGGSLRLSCAASGRIFGGYDMGWYRQAPGKERELVASISYSGGTTYYADSVKGRFTISRDNAKNTVYLQMNSLKPEDSAVYYCAALSQHNDSGYDYWGQGTQVTVSS”, for which the “polyreactivity (PSR sort gate)” value is “high polyreactivity”. Next, “QVQLVESGGGLLQAGGSLRLSCAASGRIFSFNTMGWYRQAPGKERELVAAISRGGSTYYADSVKGRFTNSRDNAKNTVYLQMNSMKPEDTAVYYCNALLPPGSRKYNYWGQGSQVTVSS”: “high polyreactivity”; “QVQLVESGGGLLQAGGSLRLSCAASGRTFETNAMGWNRQAPGKQRELVASINWSGGSTYYADSVKGRFTISRDNAKNSVYLQMNSLKPEDTAVYYCAADHSYWDWWSYYYWGQGTQVTVSW”: “low polyreactivity”.

With “QVQLVESGGGLLQAGGSLRLSCAASGRTFNYYAMGWYRQAPWKESELVADIRGRGGSTYYADSVKGRFTISRDNAKITVYLQMNSLKPEDKAVYYCARRSPYPYSIYYYWGQGTQVTVSS”, the “polyreactivity (PSR sort gate)” value is listed as “high polyreactivity”.

As to “QVQLVESGGGLLQAGGSLRLSCAASGRTFRYYAMGWYRQAPGKERELVAAISSGGSSTYYADSVKGRFTISRDNAKNTVYLQMNSLKPEDTAVYYCAAGYYPFNYWGQGTQVTVSS”, the “polyreactivity (PSR sort gate)” value was “high polyreactivity”.

Regarding “QVQLVESGGGLLQAGGSLRLSCAASGRTFRYYTMGWYRQAPGKEREFVAAISSTGRTYYGDSVKGRFTISRDNAKNTVYLQMNSLKPEDTAVYYCAATFIQVVVNVQLYDYDYWGQGTQVTVSS”, the “polyreactivity (PSR sort gate)” value is given as “low polyreactivity”. “QVQLVESGGGLLQAGGSLRLSCAASGRTFSVNAMGWYRQAPGKERELVATITWSGSSTSYADSVKGRFTISRDNAKNTVDLQMNSLKPEDTAVYYCAADLWTLIYLTDTYGHWGQATQVTVSS”: the “polyreactivity (PSR sort gate)” value was “low polyreactivity”.

As to “QVQLVESGGGLLQAGGSLRLSCAASGRTSDYYAMGWYRQAPGKERELVAAISRSGGRTYYADSVKGRFTISRDNAKNSVYFQMNSLQPEDTAVYYCNAGGTPYVLDEYWGQGTQVTVSS”, the “polyreactivity (PSR sort gate)” value was “high polyreactivity”. For “QVQLVESGGGLLQAGGSLRLSCAASGRTSGRYAMGWYRQAPGKERELVAAISSGGRTSYADSVKGRFTISRDNAQNTVDLQMISLKPEDTAVYYCAAVFVLARAYNYWGQGTLVTVSS” the value was “high polyreactivity”; for “QVQLVESGGGLLQAGGSLRLSCAASGSIFPDYAKGSYRQAPGKERELVAAITGIDGSTYADSVKGRFTISRVHAKNSVYLQINRLKPEDTAVYYCNTESIRYVPWFRFDYWGQGTQVTVSS”, “low polyreactivity”. For “QVQLVESGGGLLQAGGSLRLSCAASGSIFRRYAMGWYRQATGKERELVAAISRSGSSTYADSVKGRFTISRDNAKNTVYLQMNSLKPEDTAVYYCAASYAFLYYGYDSWGHGTQVTVSS” the value was “low polyreactivity”. Next, “QVQLVESGGGLLQAGGSLRLSCAASGSIFSGYAMGWYRQAPGKERELVAAISGSGGSTFYADSVKGRFTISRDNAKNTVYLQMNSLKPEDTAVYYCAARRIAPYGRYDYWGQGTQVTVSS”: “low polyreactivity”; “QVQLVESGGGLLQAGGSLRLSCAASGSTFDIYAMGWYRQAPGKERELVAVISGGDGSTYYADSVKGRFTISRENAKNTVYLQMNSLKPEDTAVYYCAADDISPGYWDGEYDCWGQGTQVTVSS”: “low polyreactivity”; “QVQLVESGGGLLQAGGSLRLSCAASGSTFDYYVMGWYRQAPGKERELVAAISHNAGSTYYADSVKGRFTISRDNAKNTVYLQMNSLKPEDTAVYYCAAPDYRNGVRYPLDYWGQGTQVTVSS”: “low polyreactivity”. “QVQLVESGGGLLQAGGSLRLSCAASGSTFSSYAMGWYRPAPGKERELVAAITSSGGSTYYADSVKGRFTISRDNAKNTVYLKLNSLKPEDTAVYYCAAADVIFWLYYYWGQGTQVTVSS”: the “polyreactivity (PSR sort gate)” value is “low polyreactivity”. Consider “QVQLVESGGGLLQAGGSLRLSCAASGSTFYPYAMRWYRQAPGKERELVAAISSGGSTSYADSVKGRFTISRDNAKNTVYLQMNCLKPEDTAVYYCNGSSPGAVPVYDYDYWGQGTQVTVSS”, for which the “polyreactivity (PSR sort gate)” value was “low polyreactivity”.

In the case of “QVQLVESGGGLLQAGGSLRLSCAASGTIFAYYAMGWYRPAPEKERELVARITYSTDRTYYADSVKGRFTISRDNAKNTVYLQMNRLKPEDTAVYYCAVETWWGFKRYKFDYWGLGTQVTVSS”, the “polyreactivity (PSR sort gate)” value is on record as “low polyreactivity”. Next, “QVQLVESGGGLLQAGGSLRLSCASSGSTFGGNAMGRYRQAPGKERELVAAITVGGDSTYYADSVKGRFTISRDNAKNTVYLQMNSLKPEDTAVYYCNASNVYFWFVTLEFDYWGQGTQVTVSS”: “low polyreactivity”; “QVQLVESGGGLLQAGGSLRLSSAASGFIFNWYAMGGYRQAPGKERELVAAITSGGSTNYADSVKGRFTISRDNAKNTVYLQMNSLKPEDTAVYYCAARHWRRYGYCGQGTQVTVSS”: “high polyreactivity”.

For the sequence “QVQLVESGGGLLQAGGSLRLSSAASGRTFSTNAMGWYRQAPGKERELVAAITSRGGSTYYADSVKGRFTISRDNAKNTVYLQMNSLKPEDTAVYYCAAGWLPKYGYWGQGTQVTVSS”, the “polyreactivity (PSR sort gate)” value is recorded as “low polyreactivity”.

Turning to “QVQLVESGGGLLQAGGSLRLSSAASGVYAMGWYRQAPGKERELVAAISRRGGSTYYADSVKGRFTISRDNAKNTVYLQMKSLNPADTAVYYCAADYTSRTRGNRDRLDYWGQGTQVTVSS”, the “polyreactivity (PSR sort gate)” value is “high polyreactivity”.

As for “QVQLVESGGGLLQAGRSLRLSCAASGSIIWLYAMGWYRQAPGKERELVAAISWTGTSTNYADSVKGRFTISRDYAKNTVYLQMNSLKPEDTAVYYCAKRWYNQKLFGYEDEYDYWGQGTQVTVSS”, the “polyreactivity (PSR sort gate)” value is “low polyreactivity”. Next, “QVQLVESGGGLVEAGGSHRLSCAASGSTFNYYAMGWYRQAPGKERELVASISGGGSTSYADSVKGRFTISRDHAKNTVYLQMNSLNPEHTAVYYCAATPIGQHFPLDYWGPGTQVTVSS”: “low polyreactivity”; “QVQLVESGGGLVEAGGSLRISCAASGSIFGYYAMGWYRQAPGKERELVAAISYSGGSTNYADSVKGRFTISRDTAKNSVSLQMNSLKPEDTAGYAFATSRSRRYVEFYRYDYWGQGPQVTVSS”: “high polyreactivity”; “QVQLVESGGGLVEAGGSLRLSCAASGLTIRWYAMGWYRQAPGKESEVVATISSGGSTNYADSVKGRFTISRDNAKNTVYFQMNSLTPEDTAVYYCNAYFRGYYHATIGMDYWGQGTQVTVSS”: “high polyreactivity”.

On to “QVQLVESGGGLVEAGGSLRLSCAASGSTFVIYTIGCYRQAPGTQRELVAAISSSGGITYYSDSVKGRFTISRDNAKNTVYLQMNSLKPEDTAVYYCAADSRSAYSPYYYWGQGTQVTVSS”, for which the “polyreactivity (PSR sort gate)” value is given as “high polyreactivity”.

“QVQLVESGGGLVEAGGSLRLSSAASGINFKMYAMVWSRQAPGKERELVADITYVGSTKYADSVKGRFTISRDNAKNTFYLQMNSLKPEDTAVYYFNAAQYYWYEYDYWGQGTQVTVSS”: the “polyreactivity (PSR sort gate)” value was “low polyreactivity”. Next, “QVQLVESGGGLVEAVGSLRLSCAASGINFQGNAMGWSRQAPGKERELVASITAGGDTTYYADSVKGRFTISRDNAKNTVYFQMNSLKPEDTAVYYCATRLYGYWPYGFDYWGQGTQVTVSS”: “low polyreactivity”; “QVQLVESGGGLVHAGCRLRLSCAPSGSILYYNAMGGYRQAPGNERELVAAITSGGSTYADSVKGRFTISRDNAKNTVYLQMYSLKPEDTAVDYCAADLDWSLSVFGTTLEHDDWGQGTQVTVSS”: “low polyreactivity”; “QVQLVESGGGLVHAGCSLRLSCAASGFTFGVYAMGWYRQAPGKERELVAAISTTVGSTYYADSVKGRFTISRDNAKNTFYLQMNSLKPEDTAVYYCAAEYTVYINYYIYEYWGQGTQVTVSS”: “low polyreactivity”. Take “QVQLVESGGGLVHAGCSLRLSCAASVSTFQVYGLGWYRQAPGKEREMVAAISRSGVRTYYADSVKARFTMSRDNAKNTVYLQMNSLKPEDTAVYYCAKTYQSTTSKSGYYYWGQGTQVTVSS”: the “polyreactivity (PSR sort gate)” value is “high polyreactivity”. With “QVQLVESGGGLVHAGGSHRLSCAASGIIVYVNAMGLYRQAPGKERELVSAITFGGDSTYYADSVKGRFTISRDTAKNTVYLQMNSLKPEDTAVYFCATDGDPAYPELEYWGQGTQVTVSS”, the “polyreactivity (PSR sort gate)” value is “low polyreactivity”. Next, “QVQLVESGGGLVHAGGSLLLSCSASGRTFDSNAMGWSRQAPGKERELVAAISGSGDTTYYADSVKGRFTISRDNAKNTVYLQMNSLKPEDTAVYYCADDHDSSGSGYEYWGQGTEVTVSS”: “low polyreactivity”. For “QVQLVESGGGLVHAGGSLRISCAASGSTFPYYAMGWYRQAPVKERELVAAISRSGGSTYYADSVKGRFTISRDNAKNTVYLQMNRLKPEDTAVYYCNARLARWGSYEYNYWGQGTQVNVSS” the value was “low polyreactivity”; for “QVQLVESGGGLVHAGGSLRISCAPSGLTFLYNAMGWYRQAPGKERELVAAISQSAGSTYYADSVKGRFTISRDNAKNTVYLQMNSLKPEDTAVYYCAAEWDSPDLVIYDYWGQGTQVTVSS”, “low polyreactivity”.
